Source: paper doi:10.1101/2021.11.23.469727 (bioRxiv, 2021)

T1: Halo:pdf2K107E (Arabidopsis thaliana, UniProt Q93V99 1-743, K107E)
T1 sequence: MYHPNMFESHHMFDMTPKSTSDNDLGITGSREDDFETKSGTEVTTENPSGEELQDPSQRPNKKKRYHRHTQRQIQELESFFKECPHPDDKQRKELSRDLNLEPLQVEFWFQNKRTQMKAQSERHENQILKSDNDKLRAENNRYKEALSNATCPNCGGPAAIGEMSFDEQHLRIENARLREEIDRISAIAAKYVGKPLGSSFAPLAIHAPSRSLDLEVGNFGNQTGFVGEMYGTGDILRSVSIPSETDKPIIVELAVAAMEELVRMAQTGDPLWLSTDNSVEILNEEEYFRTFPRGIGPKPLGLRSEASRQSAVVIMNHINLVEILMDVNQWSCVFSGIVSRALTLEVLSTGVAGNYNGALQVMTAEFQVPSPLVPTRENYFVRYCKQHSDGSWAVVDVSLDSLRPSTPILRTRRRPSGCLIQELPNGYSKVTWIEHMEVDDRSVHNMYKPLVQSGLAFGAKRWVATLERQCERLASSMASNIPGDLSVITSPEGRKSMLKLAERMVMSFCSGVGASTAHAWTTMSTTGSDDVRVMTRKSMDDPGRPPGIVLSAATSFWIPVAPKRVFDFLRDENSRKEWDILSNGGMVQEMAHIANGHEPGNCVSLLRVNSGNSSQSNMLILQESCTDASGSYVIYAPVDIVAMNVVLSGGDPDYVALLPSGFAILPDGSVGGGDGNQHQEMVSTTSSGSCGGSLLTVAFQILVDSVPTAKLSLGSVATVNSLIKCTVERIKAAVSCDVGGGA

T2: Halo:ATML1 (Arabidopsis thaliana, UniProt Q8RWU4 1-762)
T2 sequence: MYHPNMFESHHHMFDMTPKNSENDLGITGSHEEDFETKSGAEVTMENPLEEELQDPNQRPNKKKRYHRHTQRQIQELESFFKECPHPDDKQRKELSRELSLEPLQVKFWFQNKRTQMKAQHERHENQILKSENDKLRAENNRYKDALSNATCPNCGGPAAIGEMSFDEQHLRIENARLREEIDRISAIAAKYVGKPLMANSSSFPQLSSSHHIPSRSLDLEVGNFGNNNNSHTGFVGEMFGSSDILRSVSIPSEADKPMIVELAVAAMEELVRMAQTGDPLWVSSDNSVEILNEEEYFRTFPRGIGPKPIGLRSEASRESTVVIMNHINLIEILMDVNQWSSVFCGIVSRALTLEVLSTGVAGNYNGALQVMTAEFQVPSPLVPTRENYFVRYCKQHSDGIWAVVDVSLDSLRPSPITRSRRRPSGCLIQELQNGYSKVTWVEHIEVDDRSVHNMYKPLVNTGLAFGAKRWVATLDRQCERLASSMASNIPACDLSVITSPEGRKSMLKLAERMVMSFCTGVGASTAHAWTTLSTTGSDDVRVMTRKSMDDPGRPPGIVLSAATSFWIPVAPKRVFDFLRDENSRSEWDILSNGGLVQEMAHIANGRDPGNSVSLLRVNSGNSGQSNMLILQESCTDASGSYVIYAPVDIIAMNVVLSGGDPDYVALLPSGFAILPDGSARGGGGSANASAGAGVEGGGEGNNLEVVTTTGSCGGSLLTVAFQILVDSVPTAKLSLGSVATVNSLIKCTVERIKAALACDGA

T3: Halo:PDF2 (Arabidopsis thaliana, UniProt Q93V99 1-743)
T3 sequence: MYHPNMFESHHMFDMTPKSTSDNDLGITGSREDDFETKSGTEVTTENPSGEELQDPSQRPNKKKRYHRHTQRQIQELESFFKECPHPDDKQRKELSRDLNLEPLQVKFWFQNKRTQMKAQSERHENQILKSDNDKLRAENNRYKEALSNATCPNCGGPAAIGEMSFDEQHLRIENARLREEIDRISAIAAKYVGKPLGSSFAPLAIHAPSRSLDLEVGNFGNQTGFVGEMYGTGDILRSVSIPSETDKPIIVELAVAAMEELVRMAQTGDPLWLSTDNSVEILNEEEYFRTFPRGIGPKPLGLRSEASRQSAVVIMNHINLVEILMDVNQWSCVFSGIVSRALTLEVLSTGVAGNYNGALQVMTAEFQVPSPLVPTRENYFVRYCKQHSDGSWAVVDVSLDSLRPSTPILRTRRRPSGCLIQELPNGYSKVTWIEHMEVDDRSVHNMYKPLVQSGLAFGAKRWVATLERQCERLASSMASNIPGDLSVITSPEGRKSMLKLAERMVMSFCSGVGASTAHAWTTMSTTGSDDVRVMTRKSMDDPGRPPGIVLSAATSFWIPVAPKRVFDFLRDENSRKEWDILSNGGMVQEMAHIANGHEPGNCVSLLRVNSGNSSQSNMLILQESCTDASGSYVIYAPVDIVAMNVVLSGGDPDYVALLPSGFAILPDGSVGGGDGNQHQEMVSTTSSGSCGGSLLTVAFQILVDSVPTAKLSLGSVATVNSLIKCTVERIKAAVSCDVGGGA

T4: Halo:atml1ΔST (Arabidopsis thaliana, UniProt Q8RWU4 1-253+483-762, internal_change)
T4 sequence: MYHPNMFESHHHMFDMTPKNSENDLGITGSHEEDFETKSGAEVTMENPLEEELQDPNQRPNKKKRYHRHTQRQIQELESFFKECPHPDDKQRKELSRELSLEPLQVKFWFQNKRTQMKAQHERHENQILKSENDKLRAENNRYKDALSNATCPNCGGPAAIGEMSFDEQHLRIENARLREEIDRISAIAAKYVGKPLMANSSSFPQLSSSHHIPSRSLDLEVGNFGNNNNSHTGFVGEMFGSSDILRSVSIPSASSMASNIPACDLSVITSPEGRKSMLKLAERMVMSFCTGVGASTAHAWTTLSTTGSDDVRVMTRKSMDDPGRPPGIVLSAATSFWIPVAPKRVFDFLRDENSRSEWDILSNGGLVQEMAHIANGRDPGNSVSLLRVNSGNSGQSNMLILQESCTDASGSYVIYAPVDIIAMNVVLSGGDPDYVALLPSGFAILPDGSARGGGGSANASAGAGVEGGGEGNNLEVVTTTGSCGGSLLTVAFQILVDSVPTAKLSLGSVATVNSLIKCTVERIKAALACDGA

T5: Halo:pdf2ΔST (Arabidopsis thaliana, UniProt Q93V99 1-244+475-743, internal_change)
T5 sequence: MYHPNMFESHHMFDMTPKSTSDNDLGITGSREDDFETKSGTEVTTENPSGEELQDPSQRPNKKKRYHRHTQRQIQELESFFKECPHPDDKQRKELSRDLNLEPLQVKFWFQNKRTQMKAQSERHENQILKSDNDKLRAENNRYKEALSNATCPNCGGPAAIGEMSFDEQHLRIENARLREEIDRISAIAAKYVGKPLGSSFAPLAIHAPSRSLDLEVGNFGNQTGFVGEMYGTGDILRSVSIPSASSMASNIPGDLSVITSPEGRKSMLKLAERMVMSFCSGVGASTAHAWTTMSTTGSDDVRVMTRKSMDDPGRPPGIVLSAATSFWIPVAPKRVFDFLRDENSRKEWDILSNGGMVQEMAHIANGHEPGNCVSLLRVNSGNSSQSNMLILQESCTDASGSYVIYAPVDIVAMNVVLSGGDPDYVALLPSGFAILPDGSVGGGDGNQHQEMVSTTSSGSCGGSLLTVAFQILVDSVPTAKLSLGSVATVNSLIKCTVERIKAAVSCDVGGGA

B1: Halo:PDF2 (PROTODERMAL FACTOR2, full length, Halo-tagged) (natural protein, Arabidopsis thaliana, UniProt Q93V99 1-743, looked up)
chain: MYHPNMFESHHMFDMTPKSTSDNDLGITGSREDDFETKSGTEVTTENPSGEELQDPSQRPNKKKRYHRHTQRQIQELESFFKECPHPDDKQRKELSRDLNLEPLQVKFWFQNKRTQMKAQSERHENQILKSDNDKLRAENNRYKEALSNATCPNCGGPAAIGEMSFDEQHLRIENARLREEIDRISAIAAKYVGKPLGSSFAPLAIHAPSRSLDLEVGNFGNQTGFVGEMYGTGDILRSVSIPSETDKPIIVELAVAAMEELVRMAQTGDPLWLSTDNSVEILNEEEYFRTFPRGIGPKPLGLRSEASRQSAVVIMNHINLVEILMDVNQWSCVFSGIVSRALTLEVLSTGVAGNYNGALQVMTAEFQVPSPLVPTRENYFVRYCKQHSDGSWAVVDVSLDSLRPSTPILRTRRRPSGCLIQELPNGYSKVTWIEHMEVDDRSVHNMYKPLVQSGLAFGAKRWVATLERQCERLASSMASNIPGDLSVITSPEGRKSMLKLAERMVMSFCSGVGASTAHAWTTMSTTGSDDVRVMTRKSMDDPGRPPGIVLSAATSFWIPVAPKRVFDFLRDENSRKEWDILSNGGMVQEMAHIANGHEPGNCVSLLRVNSGNSSQSNMLILQESCTDASGSYVIYAPVDIVAMNVVLSGGDPDYVALLPSGFAILPDGSVGGGDGNQHQEMVSTTSSGSCGGSLLTVAFQILVDSVPTAKLSLGSVATVNSLIKCTVERIKAAVSCDVGGGA
B2: ATML1 (Arabidopsis thaliana MERISTEM LAYER1), wild type, protein of the EMSA (natural protein, UniProt Q8RWU4 1-762, looked up)
chain: MYHPNMFESHHHMFDMTPKNSENDLGITGSHEEDFETKSGAEVTMENPLEEELQDPNQRPNKKKRYHRHTQRQIQELESFFKECPHPDDKQRKELSRELSLEPLQVKFWFQNKRTQMKAQHERHENQILKSENDKLRAENNRYKDALSNATCPNCGGPAAIGEMSFDEQHLRIENARLREEIDRISAIAAKYVGKPLMANSSSFPQLSSSHHIPSRSLDLEVGNFGNNNNSHTGFVGEMFGSSDILRSVSIPSEADKPMIVELAVAAMEELVRMAQTGDPLWVSSDNSVEILNEEEYFRTFPRGIGPKPIGLRSEASRESTVVIMNHINLIEILMDVNQWSSVFCGIVSRALTLEVLSTGVAGNYNGALQVMTAEFQVPSPLVPTRENYFVRYCKQHSDGIWAVVDVSLDSLRPSPITRSRRRPSGCLIQELQNGYSKVTWVEHIEVDDRSVHNMYKPLVNTGLAFGAKRWVATLDRQCERLASSMASNIPACDLSVITSPEGRKSMLKLAERMVMSFCTGVGASTAHAWTTLSTTGSDDVRVMTRKSMDDPGRPPGIVLSAATSFWIPVAPKRVFDFLRDENSRSEWDILSNGGLVQEMAHIANGRDPGNSVSLLRVNSGNSGQSNMLILQESCTDASGSYVIYAPVDIIAMNVVLSGGDPDYVALLPSGFAILPDGSARGGGGSANASAGAGVEGGGEGNNLEVVTTTGSCGGSLLTVAFQILVDSVPTAKLSLGSVATVNSLIKCTVERIKAALACDGA
B3: L1-box probe (3x L1 motif) (dsDNA)
DNA 1: GGGTACATTTATACATTTATACATTTAAAT
DNA 2: ATTTAAATGTATAAATGTATAAATGTACCC

Key:
native gel or EMSA = biological target: the molecule itself; assay: native gel or EMSA
Halo:pdf2K107E = biological target: T1, Halo:pdf2K107E; assay: EMSA
Halo:ATML1 = biological target: T2, Halo:ATML1; assay: EMSA
Halo:PDF2 = biological target: T3, Halo:PDF2; assay: EMSA
Halo:atml1ΔST = biological target: T4, Halo:atml1ΔST; assay: EMSA
Halo:pdf2ΔST = biological target: T5, Halo:pdf2ΔST; assay: EMSA

Row | Binder | stoichiometry N (native gel or EMSA) | binding result (Halo:pdf2K107E) | binding result (Halo:ATML1) | binding result (Halo:PDF2) | binding result (Halo:atml1ΔST) | binding result (Halo:pdf2ΔST)
1 | B1 | 2 | – | – | – | – | –
2 | B2 | 2 | – | – | – | – | –
3 | B3 | – | no binding | binds | binds | binds | binds
